Article PMC9897667, “Identification of procathepsin L (pCTS-L)–neutralizing monoclonal antibodies to treat potentially lethal sepsis” (Science Advances, 2023)

What was measured:
Conditions in all cases: both partners purified
[1] = target: T1, human TLR4 (ECD-His Tag, residues 1 to 631) (human, UniProt O00206 24-631); experiment: SPR; OpenSPR (Nicoya); human pCTS-L immobilised on NTA sensor chip; human TLR4 or RAGE applied as analyte at various concentrations; Kd estimated with TraceDrawer
T1 construct: signal peptide in the construct; Toll-like receptor 4, human, extracellular domain, residues 1 to 631; also called Toll-like receptor 4; recombinant TLR4; source: bought: Sino Biological Inc
T1 sequence (O00206 24-631): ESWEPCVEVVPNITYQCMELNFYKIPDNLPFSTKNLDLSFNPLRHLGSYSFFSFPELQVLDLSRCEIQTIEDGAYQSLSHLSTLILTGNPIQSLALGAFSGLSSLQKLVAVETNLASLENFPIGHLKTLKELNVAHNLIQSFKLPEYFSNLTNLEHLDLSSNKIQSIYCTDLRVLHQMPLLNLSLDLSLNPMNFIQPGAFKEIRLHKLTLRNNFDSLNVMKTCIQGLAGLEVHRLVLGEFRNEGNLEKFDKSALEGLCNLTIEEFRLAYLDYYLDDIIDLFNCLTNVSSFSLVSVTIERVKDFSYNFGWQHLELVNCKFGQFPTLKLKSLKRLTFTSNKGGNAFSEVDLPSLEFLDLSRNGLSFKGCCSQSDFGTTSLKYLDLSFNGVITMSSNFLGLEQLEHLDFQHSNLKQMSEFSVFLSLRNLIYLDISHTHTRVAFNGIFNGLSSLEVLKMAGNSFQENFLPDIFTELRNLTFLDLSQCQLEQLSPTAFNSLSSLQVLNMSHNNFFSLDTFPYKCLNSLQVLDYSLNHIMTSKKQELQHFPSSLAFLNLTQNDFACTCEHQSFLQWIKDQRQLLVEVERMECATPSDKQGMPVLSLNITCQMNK

[2] = target: T2, extracellular domain of human RAGE (residues 1 to 344) (human, UniProt Q15109 23-344); experiment: as above
T2 construct: signal peptide in the construct; receptor for advanced glycation end products, human, extracellular domain, residues 1 to 344; also called receptor for advanced glycation end products; recombinant RAGE; source: bought: Sino Biological Inc
T2 sequence (Q15109 23-344): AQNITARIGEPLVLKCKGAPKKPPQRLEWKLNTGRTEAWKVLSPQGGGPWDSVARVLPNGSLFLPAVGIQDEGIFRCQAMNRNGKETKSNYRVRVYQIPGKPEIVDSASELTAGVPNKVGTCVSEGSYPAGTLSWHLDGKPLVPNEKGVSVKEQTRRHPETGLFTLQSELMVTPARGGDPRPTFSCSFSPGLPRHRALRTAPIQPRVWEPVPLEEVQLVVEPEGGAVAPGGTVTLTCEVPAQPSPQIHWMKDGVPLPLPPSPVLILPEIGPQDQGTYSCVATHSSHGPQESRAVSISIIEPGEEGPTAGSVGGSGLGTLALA

[3] = target: T1, human TLR4 (ECD-His Tag, residues 1 to …); experiment: SPR; OpenSPR, series of Fig. 10A; pCTS-L immobilised on NTA sensor chip; TLR4 or RAGE as analyte; reference values without mAb20 (not told whether with c-mAb preincubated or with no antibody)
[4] = target: T2, extracellular domain of human RAGE …; experiment: as above
[5] = target: T1, human TLR4 (ECD-His Tag, residues 1 to …); experiment: SPR; OpenSPR (Nicoya); TLR4 (residues 1 to 631) or RAGE extracellular domain (residues 1 to 344) immobilised on NTA sensor chip; pCTS-L applied as analyte at different concentrations; representative Kd
[6] = target: T2, extracellular domain of human RAGE …; experiment: as above

Kd [1]: 20.2 nM | Kd [2]: 3.5 nM | Kd [3]: 20.3 ± 2.3 nM | Kd [4]: 3.1 ± 0.4 nM | Kd [5]: 64.4 nM | Kd [6]: 3 nM
B1: recombinant human procathepsin L (pCTS-L) (natural protein, UniProt P07711 18-333, looked up)
chain: TLTFDHSLEAQWTKWKAMHNRLYGMNEEGWRRAVWEKNMKMIELHNQEYREGKHSFTMAMNAFGDMTSEEFRQVMNGFQNRKPRKGKVFQEPLFYEAPRSVDWREKGYVTPVKNQGQCGSCWAFSATGALEGQMFRKTGRLISLSEQNLVDCSGPQGNEGCNGGLMDYAFQYVQDNGGLDSEESYPYEATEESCKYNPKYSVANDTGFVDIPKQEKALMKAVATVGPISVAIDAGHESFLFYKEGIYFEPDCSSEDMDHGVLVVGYGFESTESDNNKYWLVKNSWGEEWGMGGYVKMAKDRRNHCGIASAASYPTV
notes: procathepsin L (pCTS-L), human, recombinant; A HEK293-made pCTS-L is named only for stimulating PBMCs; also called proCTS-L; human pCTS-L; source: recombinant, highly purified
